From the DeepSol protein solubility set come the findings set out here.

A short description of this series: soluble on expression in E. coli; label from the status in PepcDB or PDB records.
In the case of “MSVNGAFSPCVVIPCYNHGAMMASVLVRLAPLALPVFIVDDGSDAATQHVLNLLAAENDGVTLIRLANNSGKGAAVMRGIEAVAQAGFSHALQVDADGQHQIEDAPLLLDEAKTHPDCLISGRPRYDDSVPKSRLYGRYVTHVWVWIETLSLSIKDSMCGFRVYPVAATVSLLSRKSLGRRMDFDTEIMVRLYWAGTPSRFIETAVTYPENGLSHFDALHDNLRISWMHTRLFFGMLPRIPVLLMRQRQQHWAGVSERKGLLGMRFMLAVYQRLGRGVFTLFLWPVIAFYWLTGRTARKASQSWLRQIGEYAHQQDILLPKPLNSYHHFLRFGQAMLDKIASWRGDLHWGRDIDFAPGAQEAIEHGRQKGQLILASHLGDIEVCRALAPQVSGLVINALVFTENSQRFKQVLEEIAPQAGVNLIPVSNIGPDTAIMLQQKLDAGEWVAIVGDRTAVHRQRGGVRRVVWSPFLGKEAPFPQGPFVLAAALRCPVLLMFVIREQKKLRVYCEPFADSITLPRPTRQQALQQVVDRYAERLAHYALKSPLDWFNFFDFWSLPDDDGRTAGKKESLEHHHHHH”, the “soluble on expression in E. coli” value is given as “not soluble”.

As to “MSVQLKCDAVNCVYNRSHLCSAEEIEVQGGETTGGDATFCGTFSSKSLGNFVSSLGNMNYSGSLKQAVSAEPIMDPKVHCNAVNCTYNDQRYCHADQVEIRNEVSHTAEELEHHHHHH”, the “soluble on expression in E. coli” value is “soluble”.

Take “MSVSITFTDAAKRALASIVAQSERQLKLAFDTDGCGCLVDGVPALWLVDKADEDDVVVETNFMPVLVERSRLIFFDEAMTIDVKPGTTVFQLKSPGQTLNGHMPLVEVKSGHER”: the “soluble on expression in E. coli” value is recorded as “not soluble”.

On to “MSWMQNLKNYQHLRDPSEYMSQVYGDPLAYLQETTKFVTEREYYEDFGYGECFNSTESEVQCELITGEEDPKLLPYDKRLAWHFKEFCYKTSAHGIPMIGEAPLEHHHHHH”, for which the “soluble on expression in E. coli” value is on record as “soluble”.

Take “MSWYTSCPKMLLGATAVAVPLGATVFRRESEKSENLLKIKKAKELVETTMAIQGIPGLSIAVSLDGKMVWKSGFGYANLESFAKCTGDSVMRIASISKPITATLAAQCVENGTLDLDEDIRKYLPEFPAKKFKNEDVKITMRQLLSHSAGIRHYATEKKKSETHEDPSNNNTETPEFLSNKPYNSSLDALAIFKNDDLVEKPGSKFSYTTYGLTLAGAVLEKCSGKTYRQLANQLFSDLGMRNTQLDTKEKIVPGRASYYQRNSKNILENCPEVDCSNKFAGGGIISNTTDLLIIANAILHSILSDSKNCLLQRETIRKFLEKQVPVDSKTSTGLGWFLVDGKDLKSIDGNISNSSFFYHTGAAVGASSVLLVNTSSGVCVAILCNLQNTTVLKLGRDIGDLFHGEI”: the “soluble on expression in E. coli” value is listed as “soluble”.

For the sequence “MSYDRVKDFDLPELAVHLQPHGAVMIDRKSMFYFRLSGRGAQLAFLLSKNKNLHKTARIWEIMKKEEMSADQLKEELSAHPFTEAWTEGLLDQPLHVSGSLDSYLPISCTLQLTNACNLSCSFCYASSGKPYPEELSSEQWILVMQKLAAHGVADITLTGGEAKLIKGFKELVVVASSLFTNVNVFSNGLNWRDEEVELLSHLGNVSVQISIDGMDNTHDQLRGRKGGFKESMNTIKKLSEANIPVIVAMTINESNADEVSDVVEQCANAGAFIFRAGKTLSVGRATEGFKALDIDFEEMVQIQLREARHKWGDRLNIIDWEHEESSFTTDFCTPGYLAWYIRADGYVTPCQLEDLPLGHILEDSMADIGSPARLLQLKCEAKNCKCIGKIELSEPDLPFQKEVKAGIQE”, the “soluble on expression in E. coli” value is “not soluble”.

Turning to “MSYDTDPFRGEFDSLEEFADRVSDVLKCPVTIEDANHRLIAYSAHDDYTDPARTATIISRRVPEKVINSLWKQGAIPALLKSREPVRVPPIHDVGLGSRVAVSIWKNDEVIGFIWVLETNRTLSPEEMEWLKLAAKAAKNKVLQLYMRKNKKEERVQELFWKLLTGHIAREDDIRAHLAAMQIPTAPQFAVVVFRFAADLTAEMERQISYLLQTTQQLPLLLYTTDGRDVILLAAPKTDQPLKELNAFIESFAAKMKERFHIHDVQCGFGGVYGIYRLIEKSYREALAVLALKEKLGDEIKSVYGYAQLGIYQFFDLLLEQKRQGEWTNPALTKLQSYDQKHHSDLVKTFETFFDHNENAQETADVLNVHPNTLAYRLKRIADIAELDLNDMNQKIKLYIDIKLAKYEARG”, the “soluble on expression in E. coli” value was “not soluble”.

Take “MSYERRKTREVSVGTVKIGGENPISIQSMTNTDTRDADATIAQIKRLEEAGCDIVRVAVPDIKAAKNIAKIKSSVNIPIIADIHFDYKLALEAIKQGVDGIRINPGNIGSIERVKMVVEKCKERNLKIRIGVNGGSLEKELLKKYGSATAEALVESAMGHIKILEDLDFHNIVISLKSSDIYKTVDAYELISKKVDYPLHIGITESGSVHKGTIKSSIGVGALLLKGIGDTVRISLTGDPVEEVIVGKQILRSLGLLNDKIKVISCPTCGRCNIDLISVVNEVEEKIGSMEKNITVAIMGCAVNGPGEAREADIGIAGGKGEGLLFKKGEIVRMIDGNKLVDELLEEIEKL”: the “soluble on expression in E. coli” value is given as “not soluble”.

Consider “MSYNYLKAARKIICIGRNYAAHIKELNNSTPKQPFFFLKPTSSIVTPLSSSLVKTTRPANSTFNGLNEDGTNPGPIFIPRGVKVHHEIELALIVSKHLSNVTKMKPEEVYDSISGVALALDLTARNVQDEAKKKGLPWTISKGFDTFMPISAIVSREKFSSYKSNLQDIFRVKCSVNGQLRQDGGTNLMLHPLHKILQHISTMISLEPGDIILTGTPAGVGELKPGDRVHCELLQNNDNIVDMNFECENRPGPYEFRET”, for which the “soluble on expression in E. coli” value was “soluble”.

Turning to “MSYRYMRMILMFDMPTDTAEERKAYRKFRKFLLSEGFIMHQFSIYSKLLLNNTANNAMIGRLREHNPNKGNITLLTVTEKQFARMIYLHGERNNCIANSDERLVFLGEAFDES”, the “soluble on expression in E. coli” value was “not soluble”.

Consider “MSYTTDEVHFLLDLDAEITAVAGAITRDHAMTKATAVKDAATFHKHFGANGRAAMELCASRTSAQGKLPHDWLMCHDSSQQATPLTVAQQRAHRIHRVCGSEAIVHDVTCSIGTEGAAITDLGMAYHGSDLDMSRLLMARHNVPTGLFFQADALKRASTSSDVIIADPARRAEGRRITKPDQLIPPLPQLVDHWRIATTTAAPMAIKCAPGLDFQEWDGLVSVVSVAGGVKEACLYTPELSEGLTREAIMIGPDQSVDVLNDRHGGEVPAGDPGTFIIDPDGAVVRAGLVQHYAAREQLWMLDEHIAYLTGDRIPQGRSGFRFIEMVGLKQLKSALVAHDAGSLEILVRGVDVDPDQLRKKLKLKGNTPMAVICTRIGRKGVALICHAREHSQT”, for which the “soluble on expression in E. coli” value is recorded as “not soluble”.

Take “MTAAARTPAFYLDLGVPDTVMGRFEMLSVIMILYFRRTKSSGVSGQEIAQEIVDAFFQDIDHSIRELGIGDQGVPKRMKKFAGMFYGRLESYAAALDASDCAALAAALRRNIYPQVDDEAPEMEGLAGWMMETSDALAAQSEETIATGSLTLPLPILEHHHHHH”: the “soluble on expression in E. coli” value is “not soluble”.

As to “MTAAMYDLMDYDEVLEKFDPVMGLEVHVELATETKMFSAPSAHFGAEPNSNVDPVSLGLPGALPVVNAKGVEWAIKIGLALNCKIAESSRFARKNYFYPDQPKNYQISQYDEPIAYDGYLDVVLDDGTPWRVEIERAHMEEDTGKLTHLGGADGRIHGATASLVDCNRAGIPLIEIVTKPIEGAGERAPEVARAYVGALRDLVKALGVSDARMDQGSMRCDANVSLRPVGTVEFGTRTETKNINSLKSVEQAVRYEMQRQAQVLEDGGEIVQETRHYQETDGSTSKGRPKETAEDYRYFNDPDLPPVIAPKEWVEEIRATLPELPWIRRARIQKEWGLKDEEMRDLVNAGALDLIVETVEAGASASEARSWWVAYLSQKANESGVELDSLSITPQQVARVAALVKEGKLTNKLARQAVDGVLAGEGDVDEVVAARGLEVVRDDGAIEKAVDEALAANPDIVEKYKAGNTKVTGAIVGAVMKATRGKADPAQVNKLIAEKLA”, the “soluble on expression in E. coli” value is “not soluble”.

In the case of “MTAAPYNYSYIFKYIIIGDMGVGKSCLLHQFTEKKFMADCPHTIGVEFGTRIIEVSGQKIKLQIWDTAGQERFRAVTRSYYRGAAGALMVYDITRRSTYNHLSSWLADAKSLTNPNTAIFLIGNKADLEDQRDVPYEEAKAFAEENGLTFLECSAKTGSNVEDAFLETAKQIYQNIQDGSLDLNAADTGVQPKQNLPRAAENNGKKDCNC”, the “soluble on expression in E. coli” value was “not soluble”.

For “MTADALVRAPAEPTHPIREWTTVFVGTGDEHLVVAEGPKHRDWRKIGNVFREPARTAVLGLIRTCIADRELKIETFEGKVADALGPVAAAHPILTPDKSVVVAVQIWSGDPKKNPPDRPNVGAWEWVLSSEDNPPPPQLQLDPGAIELIGMSTRHQDRSVFGPADLYTRSARLSDTLRHVRQIRDCQVKDRFDGTFTIRAEADVTRELRYAERCVEGPAGRRVRGICWDAGTDEALVHESMLDAWLSTMLASTSGMYIAVGDLSYQYPYWLKWVTEHVPGLGHGVSTGQTFALHEEDWPKIIEWVQQVRKGPVSGTVRARRGGGGWLKAEFRGFLLDPLVSDSIGVAVISPEIETIPDETS”, the “soluble on expression in E. coli” value was “not soluble”.

For “MTAFLPPNLLALFEARPPVQYLPPCQDLLVDKNAKRAPMTGVAQYIQLFEDPKDTPAKIPVVTKAEAKEEKRRQKDELLAYKVEQGIATWNPAENPRASEDPYRTLFVGRINYETSESKLRREFEAYGKIKKLTMVHDEAGKPRGYAFIEYSDKAEMHTAYKKADGIKVDGKRLVVDYERGRTQKTWLPRRLGGGKGDTRKTREAKSVIEEREIASGFGGGYEDRDRERSGSRDRRQDSYRNGGGNDRDRRESSGGFRDNRGGGGGFGGGGRDRFNDRSGGGGYGGDRDRGGDRGGDRGGSRYSTGGGSGGGYRSGGGSSGGGGGGRYGDRR”, the “soluble on expression in E. coli” value is recorded as “not soluble”.

“MTAFQSLKPSTLSREDFVKAFADIYEHSPWVAEKAYELGLDASVDQIETLHQRMSDILLSADHASQLALINAHPDLAGKAAVQGQLTEASTNEQAGAGIHQCTAEEFQRFTELNDAYKAKFKFPFIMAVKGSNRHQILAAFETRIHNSVDTEFKCALAEINKIALFRLLTLLEHHHHHH”: the “soluble on expression in E. coli” value is “not soluble”.

On to “MTAPKVFVSHASEDKARFVVDFARRLRENGVDAWLDQWEMKPGDSLVDKIFEEGLREARAVVIVLSATSVRKPWVREELNASVVNRISRGTKLIPVVIDDCDVPEALRSTVLEHHHHHH”, for which the “soluble on expression in E. coli” value is “not soluble”.

As for “MTAPRKTRTEVITTVLNLERTLAQTVLGINDENLRVLDNQIDCDIHVRGTHVELTGPAHEVSRASKIFEELQAIARRGHVISPETVKNVISMINVETPQTVSEILTGDILARRGKVIRPKTLGQKHYVDAIDTNTIVFGLGPAGSGKTYLAMAKAVQALQSKQVSRIILTRPAVEAGEKLGFLPGTLNEKIDPYLRPLHDALRDMVEPEVIPKLMEAGIVEVAPLAYMRGRTLNDAFVILDEAQNTTPAQMKMFLTRLGFGSKMVVTGDITQVDLPGGQKSGLRLVRHILRGVDDVHFSELTSSDVVRHQLVGHIVDAYEDYEEREARELKRKRQETRP”, the “soluble on expression in E. coli” value is recorded as “not soluble”.

As for “MTAQSYHPMIKEFPEFYGPLTCPGQFLALLILEFGLNFAEIQKLKWENFNWNFKYLTIEKAGIKRVLPIREKFAIRVKAINNADELFAKSRQFLYTELKKFTNYSSKEIREQYILHQVKAGKSIYELATLLGLTTITTLEKYYRLEHHHHHH”, the “soluble on expression in E. coli” value was “soluble”.
